Experiment: yeast display, Sf9 membrane polyspecificity reagent, FACS + sequencing; frameworks hold sequencing errors
Outline: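 Using colony PCR, genes from sorted yeast display clones were amplified, then sequenced on MiSeq at 2 × 250 and filtered by CDR length. The clones had been stained with 10% biotinylated, detergent-solubilized Sf9 membrane reagent for 1 hour at 4 °C and sorted by FACS into low and high (top ~1%) gates on anti-HA and streptavidin fluorescence. Polyreactivity labels come from the gate of origin.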
In the case of “QVQLVESGGGLVQAGGSLRLSCAASGRIFYRNAMGWYRQAPGKERELVASITSGGRTNYADSVKGRFTISRDNAKNTVYLQMNSLKPEDTAVYYCAAPPPYSVRTFRFYYWGQGTQVTVSS”, the “polyreactivity (PSR sort gate)” value is reported as “high polyreactivity”.
For “QVQLVESGGGLVQAGGSLRLSCAASGRIFYRNAMGWYRQAPGKERELVAVITSSSGSTYADSVKGRFTISRDNAKNTVYLQMNSLKPEDTAVYYCAAEEDYIYFYVSMDYWGQGTQVTVSS”, the “polyreactivity (PSR sort gate)” value was “low polyreactivity”.
With “QVQLVESGGGLVQAGGSLRLSCAASGRIFYRNAMGWYRQAPGQERELDAGITRGGSTNYADSVKGRFTISRDNAKNTVYLQMNSLKPEDTAVYYCAKAIPAKFYSEAGYDYWGQGTQVTVSS” the “polyreactivity (PSR sort gate)” value was “low polyreactivity”.
With “QVQLVESGGGLVQAGGSLRLSCAASGRIFYRYAMGWYRQAPGKEREFVAAISGTGGSTYYADSVKGRFTISRDNAKNTVYLQMNSLKPEDTAVYYCAASVVSRPTYYAYYYWGQGTQVTVSS” the “polyreactivity (PSR sort gate)” value was “high polyreactivity”.
For “QVQLVESGGGLVQAGGSLRLSCAASGRIFYRYAMGWYRQAPGKERELVAAISRTGSRTYYADSVKGRFTISRDNAKNTVYLQMNSLKPEDTAVYYCNKVSAPAEFRSRGYWGQGTQVTVSS”, the “polyreactivity (PSR sort gate)” value was “high polyreactivity”.
In the case of “QVQLVESGGGLVQAGGSLRLSCAASGRIFYRYAMGWYRQAPGKERELVAAISSGGSTYYADSVKGRFTISRDNAKNTVYLQMNSLKPEDTAVYYCAATWGRGTYYLYYYWGQGTQVTVSS”, the “polyreactivity (PSR sort gate)” value is reported as “high polyreactivity”.
With “QVQLVESGGGLVQAGGSLRLSCAASGRIFYRYAMGWYRQAPGKERELVAAISTSGARTYYADSVKGRFTISRDNAKIYVYLQMNSLKPVDTAVYYCAATATVSKFGYWGQGTQVTVSS” the “polyreactivity (PSR sort gate)” value was “low polyreactivity”.
For “QVQLVESGGGLVQAGGSLRLSCAASGRIFYRYAMGWYRQAPGKERELVAAITGSGGSTYYADSVKGRFTISRDNAKNTVYLQMNSLKPEDTAVYYCNAVYARYGSQGYEYWGQGTQVTVSS”, the “polyreactivity (PSR sort gate)” value was “high polyreactivity”.
In the case of “QVQLVESGGGLVQAGGSLRLSCAASGRIFYRYAMGWYRQAPGKERELVAAITYSGGSTYYADSVKGRFTISRDNAKNTVYLQMNSLKPEDTAVYYCAAGGRGRPTTPPYGWYKLNYWGQGTQVTVSS”, the “polyreactivity (PSR sort gate)” value is reported as “high polyreactivity”.
In the case of “QVQLVESGGGLVQAGGSLRLSCAASGRIFYRYAMGWYRQAPGKERELVAGISNSGGSTYYADSVKGRFTISRDNAKNTVYLQMNSLKPADTAVYYCATGPSYRYDIGGGRIRYYYWGQGTQVSVSS”, the “polyreactivity (PSR sort gate)” value is reported as “high polyreactivity”.
In the case of “QVQLVESGGGLVQAGGSLRLSCAASGRIFYRYAMGWYRQAPGKERELVATISSGASTNYADSVKGRFTISRDNAKNTVYVQMNSLKPEDTADYYCARLSLRYSYVSRDYWGHGTQVTVSS”, the “polyreactivity (PSR sort gate)” value is reported as “low polyreactivity”.
In the case of “QVQLVESGGGLVQAGGSLRLSCAASGRIFYRYARGWYRQAPGKERELVAAITSGTSTNYADSVKGRFTFSRDNAKNTVYLQMNSLKPEDTAVYYCAKRYYCKYAEYDYWGQGTQVTVSS”, the “polyreactivity (PSR sort gate)” value is reported as “high polyreactivity”.
With “QVQLVESGGGLVQAGGSLRLSCAASGRIFYSKVMGWYRQAPGKERELVAALSGRTGGTYYADSVKGRFTISRDNAKNTVYLQMNSLKPEDTAVYYCAARVLYYYGSGPYDYWGQGTQVTVSS” the “polyreactivity (PSR sort gate)” value was “low polyreactivity”.
In the case of “QVQLVESGGGLVQAGGSLRLSCAASGRIFYSNAMGWYRQAPGKERELVAAISRSGVRTYYADSVKGRFTISRDNAKNTVYLQMNSLKPEDTAVYYCAADLYWWSYYYWGQGTQVTVSS”, the “polyreactivity (PSR sort gate)” value is reported as “low polyreactivity”.
With “QVQLVESGGGLVQAGGSLRLSCAASGRIFYSNAMGWYRQAPGKERELVAAISSSGGSTYYADSVKGRFTISRDNAKNTVDLQMNSLKPEDTAVYYCNAVHARYRSQGDYWGQGTQVTVSS” the “polyreactivity (PSR sort gate)” value was “low polyreactivity”.
In the case of “QVQLVESGGGLVQAGGSLRLSCAASGRIFYSNAMGWYRQAPGKERELVAANTSGGNTYYADSVKGRFTISRDNAKNTVYLLMNSLKPEDTAVYYCAADHYWRRSGFGYWGQGTQVTVSS”, the “polyreactivity (PSR sort gate)” value is reported as “low polyreactivity”.
With “QVQLVESGGGLVQAGGSLRLSCAASGRIFYSNTMGWYRQAPGKVRELVAAISRRGGSTYYADSVKGRFTISRDNAKTTVYLQMNSLKPEDTALYYCNTGYSTRLHDYWGQGTQVTVSS” the “polyreactivity (PSR sort gate)” value was “high polyreactivity”.
With “QVQLVESGGGLVQAGGSLRLSCAASGRIFYSYAMGWYREAPGKERELVARITRGSSTYYADSVKGRFTISRDNAKNTVYLQMNSLKPEDTAVYYCAKSRYTALTNHWSHDYWGQGTQVTVSS” the “polyreactivity (PSR sort gate)” value was “low polyreactivity”.
In the case of “QVQLVESGGGLVQAGGSLRLSCAASGRIFYSYAMGWYRQAPGKEREFVAAISYSGGSTYYADSVKGRFTISRDNAKNTVFLQMNSLKPEDTAVYYCAAKVKFYTYYYWGQGTQVTVSS”, the “polyreactivity (PSR sort gate)” value is reported as “high polyreactivity”.
With “QVQLVESGGGLVQAGGSLRLSCAASGRIFYSYAMGWYRQAPGKERELVAAISSAGSTYYADSVKGRFTISRDNAKNTVYLQMNSLKPEDSAVYYCAAYRAGNSYYPRLNYWGQGTQVTVSS” the “polyreactivity (PSR sort gate)” value was “high polyreactivity”.
In the case of “QVQLVESGGGLVQAGGSLRLSCAASGRIFYSYGMGWYRQAPGKERELVATISIGGSTNYADSVKGRFTSSRDNAKNTVYLQMNSLKPEDTAVYYCNARAWFSYTSRRYTYWQEGYWGQGTQVTVSS”, the “polyreactivity (PSR sort gate)” value is reported as “high polyreactivity”.
For “QVQLVESGGGLVQAGGSLRLSCAASGRIFYTNAMGWYRQAPGKERELVAGIRFNGGSTYYADSVKGRFTISRDNAKNTVYLQMNSLKPEDTAVYYCAVRTYYSGYDSWGQGTQVTVSS”, the “polyreactivity (PSR sort gate)” value was “low polyreactivity”.
For “QVQLVESGGGLVQAGGSLRLSCAASGRIFYTYAMGWYRQAPGKERELVAAINYSSASTYYADSVKGRFTISRDNAKNTVYLQMNSLKPEDTAVYYCNVAYVYGSFRRRPMGYWGQGTQVTVSS”, the “polyreactivity (PSR sort gate)” value was “high polyreactivity”.
With “QVQLVESGGGLVQAGGSLRLSCAASGRIFYTYAMGWYRQAPGKERELVAAITYRGGSTYYADSVKGRFTISRDNAKNTVYLQMNSLKPEDTAVYYCATQLWDRYGFGYWGQGTQVTVSS” the “polyreactivity (PSR sort gate)” value was “high polyreactivity”.
In the case of “QVQLVESGGGLVQAGGSLRLSCAASGRIFYVYAMGWYRQAPGKERELVAAITSSGGTTYYADSVKGRFTISRDNAKNTVYLQMNSLKPEDTAVYYCNLIYRYGWGDYWGQGTQVTVSS”, the “polyreactivity (PSR sort gate)” value is reported as “high polyreactivity”.
In the case of “QVQLVESGGGLVQAGGSLRLSCAASGRIFYVYTMGWYRQAPGKERELVASIRRSGGSTYYADSVKGRFTISRDNAKNTVYLQMNSLKPEDTAVYYCAARYNSAANDKRYYYWGQGTQVTVSS”, the “polyreactivity (PSR sort gate)” value is reported as “high polyreactivity”.
For “QVQLVESGGGLVQAGGSLRLSCAASGRIFYWNVMGWYRQAPGKERELVAAISSSGASTSYADSVKGRFTISRDNAKNTVYLQMNSLKPEDTAVYHCAARTRRNYRQYNYWGQGTQVTVSS”, the “polyreactivity (PSR sort gate)” value was “high polyreactivity”.
With “QVQLVESGGGLVQAGGSLRLSCAASGRIFYYNAMGWYRPAPGKERELVAAINYRGGSTYYADSVKGRFTISRDNAKNTVYFQMNSLKPEDTAVYDCAARYWKDGSTYDYWGQGTQVTVSS” the “polyreactivity (PSR sort gate)” value was “high polyreactivity”.
With “QVQLVESGGGLVQAGGSLRLSCAASGRIFYYNAMGWYRQAPGKEMELVAAITSGGSTNYADSVKGRFTISRDNAKNTVYLQMNSLKPEDTAVYYCAADYYYYVAGVHYDYWGQGTQVTVSS” the “polyreactivity (PSR sort gate)” value was “low polyreactivity”.
In the case of “QVQLVESGGGLVQAGGSLRLSCAASGRIFYYNAMGWYRQAPGKERELVAAINYRGGSTYYADSVKGRFTISRDNAKNTVYLQMNSLKPEDTAVYYCAARYWEDGSTYDYWGQGTQVTVSS”, the “polyreactivity (PSR sort gate)” value is reported as “high polyreactivity”.
For “QVQLVESGGGLVQAGGSLRLSCAASGRIFYYNDMGWYRQAPGKERELVATITIGNSTNYADSVKGRFTISRDNAKNTVYLQMKSLKPEDTAVYYCNADYSDVTTGDWRYENDYWGQGTQVTVSS”, the “polyreactivity (PSR sort gate)” value was “low polyreactivity”.
With “QVQLVESGGGLVQAGGSLRLSCAASGRIFYYNDMGWYRQAPGKERELVATITIGNSTNYADSVKGRFTISRDNAKNTVYLQMNSLKPEDTAVYYCNADYSDVTTGDWRYENDYWGQGTQVTVSS” the “polyreactivity (PSR sort gate)” value was “low polyreactivity”.
For “QVQLVESGGGLVQAGGSLRLSCAASGRIFYYNTMGWYRQAPGKERELVARITYSGGRTYYADSVKGRFTISRDNAKNTVYLQMNSLKPEDTAVYYCNTAYRYFERQMYYWGQGTQVTVSS”, the “polyreactivity (PSR sort gate)” value was “high polyreactivity”.
In the case of “QVQLVESGGGLVQAGGSLRLSCAASGRIFYYNVMGWYRQAPGKERELVAAITWSGGSTYYADSVKGRFTISRDNAKNTVYLQMNSLKPEDTAVYYCAAKFSKWTLKKYYYWGQGTQVTVSS”, the “polyreactivity (PSR sort gate)” value is reported as “high polyreactivity”.
In the case of “QVQLVESGGGLVQAGGSLRLSCAASGRIFYYNVMGWYRQAPGKERELVADIRSGDRTYYADSVKGRFTISRDNAKNTVYLQMNSLKPEDTAVYYCAADGWYRRGYYYWGQGTQVTVSS”, the “polyreactivity (PSR sort gate)” value is reported as “low polyreactivity”.
In the case of “QVQLVESGGGLVQAGGSLRLSCAASGRIFYYYALGWYRQAPGKERELVAAISSIDGTTYYADSVKGRFTISRDNAKNTVYLQMNSLKPEDTAVYYCAAEDPADQYDYWGQGTQVTVSS”, the “polyreactivity (PSR sort gate)” value is reported as “high polyreactivity”.
For “QVQLVESGGGLVQAGGSLRLSCAASGRIFYYYAMGWYRQAPGKEREFVAAIRVTSDSTYYADSVKGRFTISRDNAKNTVYLQMNSLKPEDTAVYYCAADSFYFPYDYWGQGTQVTVSS”, the “polyreactivity (PSR sort gate)” value was “high polyreactivity”.
For “QVQLVESGGGLVQAGGSLRLSCAASGRIFYYYAMGWYRQAPGKEREFVADISARGGSTYYADSVKGRFTISRDNAKKTVYLEMNSLKPEDTAVYYCAATTGLYTRYGYWGQGTQVTVSS”, the “polyreactivity (PSR sort gate)” value was “high polyreactivity”.
In the case of “QVQLVESGGGLVQAGGSLRLSCAASGRIFYYYAMGWYRQAPGKERELVAAITRGGGTYYADSVKGRFTISRDNAKNTVYLQMNSLKPEDTAVYYCAKRGPPESHHPYRYRFDYWGQGTQVTVSS”, the “polyreactivity (PSR sort gate)” value is reported as “low polyreactivity”.
With “QVQLVESGGGLVQAGGSLRLSCAASGRIFYYYAMGWYRQAPGKERELVAAITSGGRTYYADSVKGRFTISRDNAKNTVYLQMNSLKPEDTAVYYCAADRTYTYLGPGYEYWGQGTQVTVSS” the “polyreactivity (PSR sort gate)” value was “low polyreactivity”.
With “QVQLVESGGGLVQAGGSLRLSCAASGRIFYYYAMGWYRQAPGKERELVAVISRGGRTKYADSVKGRFTISRDNAKNTVYLQMNSLKPEDTAVYYCAVGLSGASSGMGYWGQGTQVTVSS” the “polyreactivity (PSR sort gate)” value was “high polyreactivity”.
For “QVQLVESGGGLVQAGGSLRLSCAASGRIFYYYDMGWYRQAPGNERELVAGINDDSSTYYADSVKGRFTISRDNAKNTVYLQMNSLKPEDTAVYYCNAGPSWYPCWYYYWGQGTQVTVSS”, the “polyreactivity (PSR sort gate)” value was “low polyreactivity”.
With “QVQLVESGGGLVQAGGSLRLSCAASGRIFYYYTMGWYRQAPGKERELVAAITSNGGSTYYADSVKGRFTISRDNAKNTVYLQMNSLKPEDTAVYYCAADSYSYRYYYWGQGTQVTVSS” the “polyreactivity (PSR sort gate)” value was “high polyreactivity”.
